In the supplement of paper PMC10126150:
± gives the standard deviation of the averaged measurements.

These sequences were tested on ATP (assay: switch fluorescence ratio, 500 uM ATP over buffer (Cy3 cluster intensity, sum of 5 cycles each) (fold (ratio)); higher = stronger signal-on switching upon ATP binding; sequences stand for … in TCGTCGGCAGCGTCAGATGTGTATAAGAGACAGTTTTTTTTTTTTTTTTTTTTTTTTT…TC). Details: aptamer strand: ATP DNA aptamer (quencher-CACCTGGGGGAGTATTGCGGAGGAAGG + anchor), 100 nM annealed; ATP concentration: 500 uM.
Outline: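 The quencher-labelled ATP aptamer, at 100 nM, was annealed to Cy3-labelled switching-strand clusters on a modified Illumina MiSeq flow-cell. The clusters were imaged in selection buffer, then after 15 min with 500 uM ATP at 22 °C, and this buffer/ATP cycle ran five times with NaOH stripping and re-annealing between runs. Per-cluster fluorescence ratios, summed target-cycle over summed buffer-cycle Cy3 intensity, were averaged per switch-domain sequence. Clusters outside 100-1000 RFU were excluded.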
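Note: ATP exposure 15 min at 22 °C before imaging.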

Row | Sequence | switch fluorescence ratio
1 | ACGGGCTTTT | 1.01 ± 0.012
2 | TCGGAAGGGT | 0.9933 ± 0.0075
3 | GGGCTTCAGA | 0.987 ± 0.023
4 | AACGGGTCTA | 1.01 ± 0.035
5 | AAGGGTATGC | 1 ± 0.035
6 | AATCGGGCAA | 1.34 ± 0.03
7 | GACTTTGGCA | 0.983 ± 0.034
8 | TCGTTAATGA | 1.02 ± 0.02
9 | AGAATGCTTT | 0.9971 ± 0.0034
10 | TATCACTTTA | 1.088 ± 0.0043
11 | GTTAACTAAT | 1.57 ± 0.85
12 | TTGTGTTTAG | 1.016 ± 0.0044
13 | ATTTTGATAC | 1.01 ± 0.044
14 | AGAGGAGTTA | 0.985 ± 0.011
15 | GGGCGACACG | 1 ± 0.06
16 | AAATTGGAAG | 1.05 ± 0.078
17 | GATAGGTAAG | 0.962 ± 0.025
18 | GCTTTGGGCA | 0.9992 ± 0.0067
19 | TTGTGCTGGT | 1 ± 0.033
20 | AGTAGGGTCC | 1.03 ± 0.029
21 | GAGCTTCTGT | 1 ± 0.04
22 | CGCCCTCAAG | 1.03 ± 0.029
23 | TTAGTATATT | 1.03 ± 0.0093

Row | Sequence | switch fluorescence ratio
24 | TGGCACAGGG | 1.06 ± 0.016
25 | TTAAGTTAGC | 1.06 ± 0.045
26 | CAAAAGGAAA | 0.992 ± 0.022
27 | CGGCACCACA | 1.08 ± 0.015
28 | AAGGTTGGGT | 0.984 ± 0.031
29 | TTGGGAAGCG | 1.001 ± 0.0093
30 | GTTTGGGAAA | 0.988 ± 0.036
31 | TAAAGCAGGA | 0.993 ± 0.03
32 | AGTTCGGGCA | 0.998 ± 0.021
33 | ATCTATGTGG | 0.982 ± 0.035
34 | AAAGAGTTGG | 0.99 ± 0.047
35 | GCAGGGGGGA | 1.04 ± 0.05
36 | GACGGGGCCC | 1 ± 0.013
37 | GGGGCGGTGT | 1.32 ± 0.54
38 | ATATGCCGAT | 0.996 ± 0.013
39 | TACACTGAAA | 1.08 ± 0.026
40 | GGGTATTGGG | 0.99 ± 0.021
41 | AAGTTGTACG | 0.9989 ± 0.0032
42 | CCAGTATCTG | 0.998 ± 0.013
43 | TAAAGGGATC | 0.978 ± 0.017
44 | TTTGTTTAGG | 1.01 ± 0.04
45 | GATTTACATT | 1.019 ± 0.0024
46 | CAAGAAAAGT | 0.978 ± 0.048

Row | Sequence | switch fluorescence ratio
47 | CAGTAGAGGG | 0.977 ± 0.028
48 | ACTGATAGGC | 1.18 ± 0.23
49 | GAGAATCCGG | 1 ± 0.087
50 | AAACTAGGGT | 0.9975 ± 0.0077
51 | TAACGGAGGT | 1.02 ± 0.014
52 | AGAGGTAAT | 1.09 ± 0.12
53 | ATGGGGGCTT | 1.02 ± 0.047
54 | TAGGTGTATG | 1.01 ± 0.033
55 | AGATAACTTT | 1.02 ± 0.013
56 | TGGGTTGGTG | 1.03 ± 0.032
57 | ACGGCTGTCA | 0.999 ± 0.025
58 | TGTGTGCCGG | 0.9332 ± 0.0057
59 | GGCGCGCGGG | 0.991 ± 0.00073
60 | GTTGTCTCCA | 0.985 ± 0.015
61 | TCAGAATCTA | 1 ± 0.015
62 | GGAAAGATAG | 1.022 ± 0.0046
63 | CATTAATGGG | 1.01 ± 0.019
64 | ATTTGCTGCG | 0.947 ± 0.087
65 | GCGGGGACGG | 1.07 ± 0.034
66 | AAATGCTACT | 1.02 ± 0.028
67 | CGAGTATGGA | 0.9923 ± 0.0042
68 | GGTGGAGCGG | 1 ± 0.047
69 | GGGAAGGCAT | 0.986 ± 0.047

Row | Sequence | switch fluorescence ratio
70 | ATGTGCGGGG | 0.99 ± 0.019
71 | CTTACGGCAC | 1.82 ± 0.062
72 | TATGCGAGTC | 0.952 ± 0.036
73 | GGCGGTAAAG | 0.992 ± 0.037
74 | CGTACGGGTT | 0.9959 ± 0.0039
75 | CTCACATGGG | 1.07 ± 0.028
76 | AACTCGACCC | 1.05 ± 0.05
77 | TGAGAGTGCG | 0.968 ± 0.027
78 | ATGATTACGT | 1.01 ± 0.03
79 | TAACGAAGGA | 1.03 ± 0.051
80 | GCACCGAAAA | 1.29 ± 0.4
81 | ATTGCTACTT | 1.031 ± 0.0052
82 | TGCAAACCTA | 1.0241 ± 0.00058
83 | ATGGGACGAT | 0.995 ± 0.026
84 | TTTCGAATTC | 1.006 ± 0.0084
85 | CACTTAAAAG | 1.05 ± 0.13
86 | ATGGCACAAT | 1.02 ± 0.067
87 | GTGGTAAGGG | 0.972 ± 0.034
88 | ATTACAAATT | 1.03 ± 0.05
89 | TCTATGAGGC | 0.988 ± 0.024
90 | ATGATAGTAC | 1.04 ± 0.017
91 | CCGGAGATCC | 2.06 ± 0.22
92 | TGGTGCTGGG | 0.9733 ± 0.0066

Row | Sequence | switch fluorescence ratio
93 | AAATTGCTTA | 1 ± 0.024
94 | GGCACCTGAC | 1.95 ± 0.11
95 | AGGGTCTTTA | 0.999 ± 0.012
96 | TCGCTGCGGA | 1.01 ± 0.018
97 | GTGGCCGGGT | 1.03 ± 0.0047
98 | CATTCAGTTT | 0.949 ± 0.021
99 | ATAGGCTAAA | 1.04 ± 0.044
100 | CTGGTTTATA | 0.962 ± 0.027
101 | TTGAAAATGG | 0.992 ± 0.026
102 | AGTAAATCTC | 1.04 ± 0.017
103 | ATTGCTTATT | 0.974 ± 0.018
104 | AGGCCGTGGC | 0.968 ± 0.035
105 | GGGATCCTTG | 1 ± 0.022
106 | ATCCTAAGGC | 1 ± 0.029
107 | CAGTCGGTGG | 1 ± 0.031
108 | TAGGGGAGTG | 1.02 ± 0.035
109 | AGACAAGGGC | 1.06 ± 0.084
110 | TAGTGTTTTT | 0.9775 ± 0.0093
111 | CGGGTAATTT | 1.03 ± 0.019
112 | ACTTATTGAA | 1.11 ± 0.17
113 | AATAATAGGC | 0.97 ± 0.012
114 | GGCCTATTGG | 0.998 ± 0.023
115 | ATGCATCTAT | 0.989 ± 0.011

Row | Sequence | switch fluorescence ratio
116 | GGGAGTGGTG | 1.12 ± 0.17
117 | GCTATAGTGG | 1.04 ± 0.035
118 | GGATGCAAAG | 1.01 ± 0.013
119 | TGTTATTGGT | 1.01 ± 0.015
120 | ACACGGGGGG | 1.04 ± 0.022
121 | AGCCTTAATT | 1 ± 0.025
122 | GCTTTCTCGT | 1.03 ± 0.029
123 | GGGAATCTTC | 1.01 ± 0.034
124 | CAGTGCCAGC | 0.999 ± 0.035
125 | ATACGGGAAT | 1.05 ± 0.022
126 | GGTTTGGGCG | 1.03 ± 0.034
127 | CGGTTATGTA | 0.989 ± 0.034
128 | GCCGTGGAG | 1.0133 ± 0.00012
129 | GAGCTTGAGT | 0.984 ± 0.011
130 | AAGTTATTTT | 1.01 ± 0.015
131 | ACATGCAAGC | 1.64 ± 0.12
132 | CTTGTAGGGA | 0.9956 ± 0.0053
133 | TGAGTGAGGG | 1.01 ± 0.018
134 | TTAGGATGA | 1.01 ± 0.027
135 | GCTTACAGGC | 1.04 ± 0.048
136 | GCTCTAGATG | 1.04 ± 0.0076
137 | TCGGGTCTAC | 1.01 ± 0.018
138 | CGCCTTAATT | 1.01 ± 0.042

Row | Sequence | switch fluorescence ratio
139 | CCTAGTTAGT | 1.02 ± 0.034
140 | AATGGTTGGG | 0.9989 ± 0.0078
141 | CCTAAAGTTT | 0.983 ± 0.014
142 | GGTTTCATGA | 1.01 ± 0.026
143 | GAGTTTTGGT | 1.03 ± 0.019
144 | AGTTTTTTCG | 0.973 ± 0.023
145 | TTATTTAAAG | 1.018 ± 0.0024
146 | AAAGGGGAAC | 1.03 ± 0.028
147 | GTCAGTGAAT | 0.988 ± 0.057
148 | CGTGATTCGC | 1.018 ± 0.0023
149 | ATCTATAGTG | 0.9651 ± 0.0035
150 | TTCCAGTATT | 1.05 ± 0.049
151 | GGTTAACCTG | 0.9959 ± 0.0062
152 | GGATGAAAG | 0.99 ± 0.014
153 | TTAGGGCTCA | 0.996 ± 0.027
154 | CTCTTTTTTT | 0.991 ± 0.014
155 | CGTGAGCTTG | 1.0004 ± 4.9e-05
156 | TTACGGCCCG | 1.05 ± 0.051
157 | ATAAAGAAGC | 1.02 ± 0.022
